Drawing on article PMC7506551 (2020), this text covers Kd for one molecule.

This test concerns the target SMARCB1 (aa 169–385) (human, UniProt Q12824 169-385). The test is described as follows: ITC; second site (Kd2, two-site model). (ITC needs no label: the signal is the heat of the interaction.)

Chain of SMARCB1 (aa 169–385) (Q12824 169-385): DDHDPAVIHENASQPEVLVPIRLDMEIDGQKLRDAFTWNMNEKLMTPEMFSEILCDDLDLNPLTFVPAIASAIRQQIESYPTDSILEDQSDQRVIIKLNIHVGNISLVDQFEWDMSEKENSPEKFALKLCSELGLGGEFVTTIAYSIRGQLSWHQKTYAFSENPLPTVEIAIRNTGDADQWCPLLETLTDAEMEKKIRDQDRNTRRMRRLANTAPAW

B1: SMARCC2 (aa 325–518) (domain or fragment)
chain: TKSKRGHREEEQEDLTKDMDEPSPVPNVEEVTLPKTVNTKKDSESAPVKGGTMTDLDEQEDESMETTGKDEDENSTGNKGEQTKNPDLHEDNVTEQTHHIIIPSYAAWFDYNSVHAIERRALPEFFNGKNKSKTPEIYLAYRNFMIDTYRLNPQEYLTSTACRRNLAGDVCAIMRVHAFLEQWGLINYQVDAES
For orientation: Kd means the equilibrium constant for the complex coming apart. A high value points to a looser complex. B1 returned a Kd of 1.96 nM.
